Test results taken from article PMC13570301.
pKd: −log10 of the molar value.

Assays:
[1] = target: UBE2D2 (1–147), from the plasmid pHis//2 Hs UBE2D2 (1–147) (human) (UniProt P62837); assay: BLI; conditions: enzyme
[2] = target: CHIP Y230Cfs∗9, recombinant, C-terminal His tag (human) (UniProt Q9UNE7); assay: mass photometry; Refeyn OneMP; CHIP at 50 nM final (a subset also at 20 nM and 100 nM) in 20 mM HEPES pH 8.0, 200 mM NaCl; self-association, oligomeric states by mass

Chain of CHIP Y230Cfs∗9, recombinant, C-terminal His tag (Q9UNE7 whole entry): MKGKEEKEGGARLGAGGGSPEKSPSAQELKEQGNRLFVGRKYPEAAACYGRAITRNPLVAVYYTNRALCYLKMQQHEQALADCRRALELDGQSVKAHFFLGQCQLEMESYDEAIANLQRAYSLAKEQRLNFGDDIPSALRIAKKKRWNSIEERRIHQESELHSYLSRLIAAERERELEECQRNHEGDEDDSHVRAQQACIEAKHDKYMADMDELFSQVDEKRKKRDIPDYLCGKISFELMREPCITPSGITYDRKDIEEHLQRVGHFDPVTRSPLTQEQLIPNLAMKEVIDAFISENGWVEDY
Chain of CHIP L275Dfs∗16, recombinant, C-terminal His tag (Q9UNE7 whole entry): as above
Chain of UBE2D2 (1–147), from the plasmid pHis//2 Hs UBE2D2 (1–147) (human) (P62837 whole entry): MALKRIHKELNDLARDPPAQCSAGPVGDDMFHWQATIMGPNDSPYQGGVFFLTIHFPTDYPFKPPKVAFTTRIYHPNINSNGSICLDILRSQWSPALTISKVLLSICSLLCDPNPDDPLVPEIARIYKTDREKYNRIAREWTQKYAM

Substance: CHIP L275Dfs∗16, recombinant, C-terminal His tag (from UniProt Q9UNE7-1 1-303)
- pKd [1]: 3.51

Substance: CHIP Y230Cfs∗9, recombinant, C-terminal His tag (from UniProt Q9UNE7-1 1-303) (enzyme)
- percent of the protein as dimer [2]: 80%
- stoichiometry N [2]: 2
